Where only a bound is given, the exact number is not on record here.

Among the data in article PMC3553987 are binding signal (fold lower affinity than P-STAT1) and Kd values, retold here.

Data set [1] concerns U-STAT1 (unphosphorylated STAT1) (human). The data set can be described thus: EMSA. On the technique in general: Mobility shift assays separate free from complexed probe on a gel.
Data set [2] addresses T1, c-Myc;Max isoform (human;human) (UniProt P01106+P61244). Nature of the data set: TIRF-PBM. The conditions noted are these: 5' amino on one strand, coupled to hydrogel.
The target of data set [3] is T1, c-Myc;Max isoform (human;human). Nature of the data set: TIRF-PBM. As to conditions: 5' amino on one strand, coupled to hydrogel. This is another data set of the same source.
Data set [4] relates to P-STAT1 (phosphorylated STAT1) (human). Nature of the data set: TIRF-PBM. The conditions noted are these: 5' amino on one strand, coupled to hydrogel.

T1 sequence (P01106 16-454, chain 1 of 2): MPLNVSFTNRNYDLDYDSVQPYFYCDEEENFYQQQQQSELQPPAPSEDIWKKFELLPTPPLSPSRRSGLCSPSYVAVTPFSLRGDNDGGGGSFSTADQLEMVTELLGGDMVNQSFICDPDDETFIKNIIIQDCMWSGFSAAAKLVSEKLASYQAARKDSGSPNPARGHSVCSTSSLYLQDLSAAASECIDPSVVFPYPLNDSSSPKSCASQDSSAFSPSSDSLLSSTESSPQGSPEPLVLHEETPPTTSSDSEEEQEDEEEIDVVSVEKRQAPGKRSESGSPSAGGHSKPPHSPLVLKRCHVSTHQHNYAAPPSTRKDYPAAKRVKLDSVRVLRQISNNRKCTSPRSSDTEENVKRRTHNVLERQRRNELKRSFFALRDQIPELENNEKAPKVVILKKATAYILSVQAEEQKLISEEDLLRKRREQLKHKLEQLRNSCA
T1 sequence (P61244 2-160, chain 2 of 2): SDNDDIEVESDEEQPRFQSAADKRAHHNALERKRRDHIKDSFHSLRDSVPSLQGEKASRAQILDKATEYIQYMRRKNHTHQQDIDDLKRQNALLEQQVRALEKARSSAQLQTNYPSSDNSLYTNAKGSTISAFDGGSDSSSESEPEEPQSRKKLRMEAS

Turning to GAS cognate DNA (EMSA), the binding signal (fold lower affinity than P-STAT1) in data set [1] was above 200.
For “Myc/Max cognate E-box DNA (probe number not given)”, the figures for the Kd in data set [2] and in data set [3] were 3.6 nM and 0.9 nM, respectively.
sequence 70 (optimal GAS, spacer CCG): the Kd (in general, the concentration at which binding is half-saturated) in data set [4] was 3.4 nM.
